{
  "source": "patent US20240026334",
  "target": "type I collagen (Rattus norvegicus) (UniProt P02454+P02466)",
  "sequence (P02454 152-1207, chain 1 of 2)": "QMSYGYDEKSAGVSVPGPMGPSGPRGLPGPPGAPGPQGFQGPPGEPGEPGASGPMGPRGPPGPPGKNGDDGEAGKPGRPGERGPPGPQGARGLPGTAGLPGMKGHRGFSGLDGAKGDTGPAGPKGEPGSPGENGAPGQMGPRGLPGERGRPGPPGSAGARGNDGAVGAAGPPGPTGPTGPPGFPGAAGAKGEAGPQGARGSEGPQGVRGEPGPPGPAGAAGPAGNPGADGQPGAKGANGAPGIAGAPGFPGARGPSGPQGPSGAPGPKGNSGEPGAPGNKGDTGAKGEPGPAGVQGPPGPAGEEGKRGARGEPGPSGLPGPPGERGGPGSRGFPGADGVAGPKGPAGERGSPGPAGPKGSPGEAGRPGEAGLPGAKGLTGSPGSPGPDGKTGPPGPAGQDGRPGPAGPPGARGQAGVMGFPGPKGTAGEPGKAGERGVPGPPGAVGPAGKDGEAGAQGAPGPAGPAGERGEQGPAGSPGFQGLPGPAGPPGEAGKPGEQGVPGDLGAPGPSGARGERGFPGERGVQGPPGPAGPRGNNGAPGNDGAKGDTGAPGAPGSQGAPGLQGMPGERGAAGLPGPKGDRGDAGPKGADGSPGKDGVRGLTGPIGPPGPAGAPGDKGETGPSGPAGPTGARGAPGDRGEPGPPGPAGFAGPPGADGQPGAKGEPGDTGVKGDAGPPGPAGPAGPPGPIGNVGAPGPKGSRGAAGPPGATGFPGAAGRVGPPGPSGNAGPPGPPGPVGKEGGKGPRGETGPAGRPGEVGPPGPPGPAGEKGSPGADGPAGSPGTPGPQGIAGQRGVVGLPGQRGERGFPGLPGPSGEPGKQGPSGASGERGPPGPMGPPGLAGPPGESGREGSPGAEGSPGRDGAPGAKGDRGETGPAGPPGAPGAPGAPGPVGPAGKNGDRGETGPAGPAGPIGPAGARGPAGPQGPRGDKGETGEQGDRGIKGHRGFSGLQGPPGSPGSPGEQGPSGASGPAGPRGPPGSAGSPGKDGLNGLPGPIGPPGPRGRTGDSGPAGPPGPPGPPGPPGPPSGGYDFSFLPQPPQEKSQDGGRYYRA",
  "sequence (P02466 86-1125, chain 2 of 2)": "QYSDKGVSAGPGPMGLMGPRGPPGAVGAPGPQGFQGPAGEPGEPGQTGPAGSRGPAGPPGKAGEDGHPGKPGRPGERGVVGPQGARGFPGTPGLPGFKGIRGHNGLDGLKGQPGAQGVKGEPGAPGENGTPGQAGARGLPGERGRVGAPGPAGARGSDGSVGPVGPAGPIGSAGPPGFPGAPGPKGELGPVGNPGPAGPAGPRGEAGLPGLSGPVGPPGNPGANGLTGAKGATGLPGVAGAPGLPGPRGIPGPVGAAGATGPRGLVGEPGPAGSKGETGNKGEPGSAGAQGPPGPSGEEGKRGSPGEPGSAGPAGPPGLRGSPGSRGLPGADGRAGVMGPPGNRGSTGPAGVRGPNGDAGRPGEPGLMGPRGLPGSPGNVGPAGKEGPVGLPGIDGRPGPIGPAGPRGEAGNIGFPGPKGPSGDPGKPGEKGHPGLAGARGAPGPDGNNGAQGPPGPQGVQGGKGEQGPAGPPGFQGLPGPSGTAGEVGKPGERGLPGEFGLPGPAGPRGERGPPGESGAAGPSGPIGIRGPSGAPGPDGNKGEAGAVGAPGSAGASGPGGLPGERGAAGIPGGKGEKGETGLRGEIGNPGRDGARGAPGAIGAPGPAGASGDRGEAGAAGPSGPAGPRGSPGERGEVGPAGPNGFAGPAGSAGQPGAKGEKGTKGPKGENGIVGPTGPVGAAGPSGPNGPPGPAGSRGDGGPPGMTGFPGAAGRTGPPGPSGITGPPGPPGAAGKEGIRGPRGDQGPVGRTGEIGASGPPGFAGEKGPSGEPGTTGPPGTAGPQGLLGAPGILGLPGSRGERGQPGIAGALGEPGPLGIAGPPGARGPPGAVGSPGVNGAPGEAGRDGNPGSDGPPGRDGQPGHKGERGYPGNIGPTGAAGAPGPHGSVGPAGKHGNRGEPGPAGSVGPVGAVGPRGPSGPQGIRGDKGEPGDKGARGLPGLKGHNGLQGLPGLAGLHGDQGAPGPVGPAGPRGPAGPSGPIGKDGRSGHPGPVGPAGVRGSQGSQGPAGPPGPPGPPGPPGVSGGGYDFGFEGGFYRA",
  "conditions": "maximum binding at 12-18% DNA mass fraction; binding decreases at higher DNA fraction, no fibers at ~45% DNA; collagen species not stated in this example",
  "data": [
    {"sequence": "AATTTAGGAGCTGAAGGTCAGGGCACCAGCAGCCTTTGGAAGCCTAVAGGACAACAGTCAGCCTGGCTAGAAAAAAAAACAATGTCACAG [90 nt random ssDNA oligomer]", "values": [
      {"measurement": "binding (ug ssDNA/ug collagen)", "value": 0.15}
    ]}
  ]
}
